This note sets out measurements from patent US20220267410A1 (UNIVERSITAT STUTTGART, published 2022).

Residue numbers refer to the chain shown, from its start.

B1: 6xHis-scTNFR2 143 (ligand)
chain: MCGSHHHHHHSGIPASDKPVAHVVANPQAEGQLQWLNRRANALLANGVELRDNQLVVPSEGLYLIYSQVLFKGQGCPSTHVLLTHTISRIAVSYQTKVNLLSAIKSPCQRETPEGAEAKPWYEPIYLGGVFQLEKGDRLSAEINRPDYLNFRESGQVYFGIIALGGGPSDKPVAHVVANPQAEGQLQWLNRRANALLANGVELRDNQLVVPSEGLYLIYSQVLFKGQGCPSTHVLLTHTISRIAVSYQTKVNLLSAIKSPCQRETPEGAEAKPWYEPIYLGGVFQLEKGDRLSAEINRPDYLNFRESGQVYFGIIALGGGPSDKPVAHVVANPQAEGQLQWLNRRANALLANGVELRDNQLVVPSEGLYLIYSQVLFKGQGCPSTHVLLTHTISRIAVSYQTKVNLLSAIKSPCQRETPEGAEAKPWYEPIYLGGVFQLEKGDRLSAEINRPDYLNFRESGQVYFGIIAL
notes: Expressed with Igκ leader and N-terminal 6xHis tag; also called variant 143
B2: 6xHis-scTNFR2 146 (ligand)
chain: MCGSHHHHHHSGIPASDKPVAHVVANPQAEGQLQWLNRRANALLANGVELRDNQLVVPSEGLYLIYSQVLFKGQGCPSTHVLLTHTISRIAVSYQTKVNLLSAIKSPCQRETPEGAEAKPWYEPIYLGGVFQLEKGDRLSAEINRPDYLNFRESGQVYFGIIALGGGTPSDKPVAHVVANPQAEGQLQWLNRRANALLANGVELRDNQLVVPSEGLYLIYSQVLFKGQGCPSTHVLLTHTISRIAVSYQTKVNLLSAIKSPCQRETPEGAEAKPWYEPIYLGGVFQLEKGDRLSAEINRPDYLNFRESGQVYFGIIALGGGTPSDKPVAHVVANPQAEGQLQWLNRRANALLANGVELRDNQLVVPSEGLYLIYSQVLFKGQGCPSTHVLLTHTISRIAVSYQTKVNLLSAIKSPCQRETPEGAEAKPWYEPIYLGGVFQLEKGDRLSAEINRPDYLNFRESGQVYFGIIAL
notes: Expressed with Igκ leader and N-terminal 6xHis tag; also called variant 146
B3: 6xHis-scTNFR2 147 (ligand)
chain: B2 chain with T168G, T322G
notes: Expressed with Igκ leader and N-terminal 6xHis tag; also called variant 147

Broadly, the EC50 is the concentration that produces a half-maximal response. Read a high EC50 as a less potent agent.

One assay deals with T1, TNFR2 on Kym-1 cells (UniProt P20333 23-461, limits assumed).
T1 sequence (looked up): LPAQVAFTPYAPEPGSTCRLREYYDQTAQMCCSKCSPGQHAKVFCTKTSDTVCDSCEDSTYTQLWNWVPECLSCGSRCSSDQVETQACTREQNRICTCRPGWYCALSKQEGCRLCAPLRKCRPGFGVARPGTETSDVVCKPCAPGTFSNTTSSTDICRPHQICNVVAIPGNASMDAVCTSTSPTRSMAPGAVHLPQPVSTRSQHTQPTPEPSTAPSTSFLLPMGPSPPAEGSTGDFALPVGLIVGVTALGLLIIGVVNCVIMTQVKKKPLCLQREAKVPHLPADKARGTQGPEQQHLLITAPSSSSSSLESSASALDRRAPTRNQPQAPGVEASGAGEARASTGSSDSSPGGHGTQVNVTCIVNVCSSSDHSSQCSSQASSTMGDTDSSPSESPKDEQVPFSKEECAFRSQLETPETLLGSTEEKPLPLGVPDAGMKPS
The assay is described as follows: cell-based or functional assay.
As for B1, the “EC50 of bioactivity on Kym-1 with 80M2 (cell death, crystal violet)” value (shortened to “EC50 of bioactivity on Kym-1 with 80M2”) stood at 0.0119 nM.

On to B2, for which the “EC50 of bioactivity on Kym-1 with 80M2” value was found to be 0.00655 nM.

In the case of B3, the “EC50 of bioactivity on Kym-1 with 80M2” value stood at 0.00858 nM.

A further assay addresses T2, human TNFR2-Fc (etanercept) (human, UniProt P20333 23-257).
T2 construct: Commercial drug coated on ELISA plates (200 ng/well); also called immobilized TNF-R2; not shown: Fc part of etanercept
T2 sequence (looked up): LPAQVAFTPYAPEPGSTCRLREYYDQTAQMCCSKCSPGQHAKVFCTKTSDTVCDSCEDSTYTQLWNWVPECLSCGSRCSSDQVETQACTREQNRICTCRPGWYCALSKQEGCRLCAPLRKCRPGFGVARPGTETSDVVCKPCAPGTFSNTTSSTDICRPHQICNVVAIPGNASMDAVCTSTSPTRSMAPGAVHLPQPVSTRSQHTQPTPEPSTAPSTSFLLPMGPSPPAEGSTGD
The assay is described as follows: ELISA on coated etanercept. The protocol: The binding of scTNFR2 and the scTNFR2-Fc(Δab) proteins to human TNFR2-Fc (etanercept) was analyzed by ELISA. 96-well ELISA plates were coated with 200 ng/well etanercept in coating buffer (0.1 M sodium carbonate, pH 9.5) overnight at 4° C., blocked with 2% skim milk in PBS (MPBS) and washed with washing buffer PBST (PBS, 0.05 Tween 20). ScTNFR2 and scTNFR2-Fc(Δab) proteins were titrated in duplicates and incubated on the plates for 2 h at room temperature, followed by washing with PBST. Receptor-bound complexes were detected with mouse anti-huTNFα F6C5 (Novus, 1 μg/ml) and goat anti-mouse IgG(Fc)-HRP (Sigma-Aldrich, 1:10,000), followed by extensive washing with PBST each, before incubation with HRP substrate.
On the technique in general: An ELISA detects its analyte on a solid surface through an enzyme-linked reagent.
As to B1, a half-maximal effect (EC50) was put at 0.67 nM.

B2 gave an EC50 of 0.71 nM.

As to B3, the EC50 turned out to be 0.76 nM.
